Assay results published in PMC3539426, “Crystal Structure of a 9-Subunit Archaeal Exosome in Pre-Catalytic States of the Phosphorolytic Reaction” (Archaea, 2012).

T1: Rrp42 (S. solfataricus exosome RNase PH subunit) (S. solfataricus, UniProt Q9UXC0 1-275)
T1 construct: Rrp42, RNase PH subunit of the Sulfolobus solfataricus exosome; Three copies stand in the 9-subunit complex; source: E. coli, recombinantly expressed, purified
T1 sequence: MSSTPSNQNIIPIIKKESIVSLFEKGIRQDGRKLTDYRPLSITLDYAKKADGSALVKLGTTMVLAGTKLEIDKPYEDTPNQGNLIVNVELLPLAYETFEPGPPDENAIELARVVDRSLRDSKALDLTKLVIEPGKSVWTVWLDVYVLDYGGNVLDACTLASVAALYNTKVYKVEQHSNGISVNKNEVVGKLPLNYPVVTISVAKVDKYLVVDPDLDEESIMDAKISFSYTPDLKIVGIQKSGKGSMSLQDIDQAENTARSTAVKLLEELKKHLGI

B1: Rrp41^D182A (S. solfataricus exosome RNase PH subunit Rrp41 with the D182A point mutation) (enzyme)
chain: MREMLQVERPKLILDDGKRTDGRKPDELRSIKIELGVLKNADGSAIFEMGNTKAIAAVYGPKEMHPRHLSLPDRAVLRVRYHMTPFSTDERKNPAPSRREIELSKVIREALESAVLVELFPRTAIDVFTEILQADAGSRLVSLMAASLALADAGIPMRDLIAGVAVGKADGVIILDLNETEAMWGEADMPIAMMPSLNQVTLFQLNGSMTPDEFRQAFDLAVKGINIIYNLEREALKSKYVEFKEEGV
notes: Rrp41, RNase PH subunit of the Sulfolobus solfataricus exosome, with D182A; Three copies stand in the 9-subunit complex 3*(Rrp41/Rrp42/Rrp4); the construct is not described here; source: E. coli, recombinantly expressed, purified
B2: Rrp4 (S. solfataricus exosome RNA binding protein) (natural protein)
chain: MNMSQSQKIVLQPRSIVVPGELLAEGEFQIPWSPYILKINSKYYSTVVGLFDVKDTQFEVIPLEGSFYYPKINDIVIGLVEDVEIYGWVVDIKAPYKAYLPASNLLGRSINVGEDLRRYLDVGDYVIARIENFDRSIDPVLSVKGKDLGRVSNGIVIDIMPVKVPRVIGKNKSMYETLTSKSGCSIFVANNGRIWATCPSRFSEEILIEAIRKIENESHIKGLTDRIKQFIEEKLGERNASSGETKTNS
notes: Three copies stand in the 9-subunit complex; source: E. coli, recombinantly expressed, purified

Legend:
[1] = target: S. solfataricus exosome, nonameric 3*(Rrp41/Rrp42/Rrp4) complex (Saccharolobus solfataricus, UniProt Q9UXC2, D182A); settings: 1.8 Å Pi-bound structure (4ba1), 10 mM Pi soak with 1 mM 7mer poly(A) RNA, RNA not visible; also 2.5 Å structure with RNA and Pi (4ba2); Rrp41 active site R99, G137, S138, R139; catalytically inactive
[2] = target: T1, Rrp42 (S. solfataricus exosome RNase PH …); assay: crystal structure; Rrp4/Rrp41^D182A/Rrp42 crystals, space group P213, one copy of each subunit in the asymmetric unit; soaked with 7 mer poly(A) RNA and Pi; 1.8 Å (Pi bound) and 2.5 Å (RNA and Pi bound); settings: both partners purified
[3] = target: B2; assay: as above; settings: both partners purified

Molecule	X-ray crystal structure, crystal soaking [1]	binding result [2]	binding result [3]
O=P(O)(O)O [Pi, inorganic phosphate]	the Pi ion is bound by four residues from the Rrp41 subunit	–	–
B1	–	binds	binds
B2	–	binds	–
